From patent publication US20190077860A1 (EISAI R AND D MANAGEMENT, published 2019)

B1: humanized antibody No. 93 (antibody, human IgG1, kappa)
heavy: QVQLVQSGSELKKPGASVKVSCKASGYTFTDYSMHWVRQAPGQGLEWMGWINTETGEPTYAQGFTGRFVFSLDTSVSTAYLQISSLKAEDTAVYYCARIPLYYYGSRYWYFDVWGQGTTVTVSSASTKGPSVFPLAPSSKSTSGGTAALGCLVKDYFPEPVTVSWNSGALTSGVHTFPAVLQSSGLYSLSSVVTVPSSSLGTQTYICNVNHKPSNTKVDKRVEPKSCDKTHTCPPCPAPPAAAPSVFLFPPKPKDTLMISRTPEVTCVVVDVSHEDPEVQFNWYVDGVEVHNAKTKPREEQFNSTFRVVSVLTVVHQDWLNGKEYKCKVSNKGLPAPIEKTISKTKGQPREPQVYTLPPSREEMTKNQVSLTCLVKGFYPSDIAVEWESNGQPENNYKTTPPMLDSDGSFFLYSKLTVDKSRWQQGNVFSCSVMHEALHNHYTQKSLSLSPG
light: EIVMTQSPATLSVSPGERATLSCRASENIYRNLAWYQQKPGQSPRLLIYAATNLADGIPARFSGSGSGTEYTLTISSLQSEDFAVYYCQHFWGTPWTFGQGTKVEIKRTVAAPSVFIFPPSDEQLKSGTASVVCLLNNFYPREAKVQWKVDNALQSGNSQESVTEQDSKDSTYSLSSTLTLSKADYEKHKVYACEVTHQGLSSPVTKSFNRGEC
notes: human Ig kappa; also called L2-4/HA1
B2: humanized antibody No. 96 (antibody, human IgG1, kappa)
heavy: QVQLVQSGSELKKPGASVKVSCKASGYTFTDYSMHWVRQAPGQGLKWMGWINTETGEPTYADDFKGRFVFSLDTSVSTAYLQISSLKAEDTAVYYCARIPLYYYGSRYWYFDVWGQGTTVTVSSASTKGPSVFPLAPSSKSTSGGTAALGCLVKDYFPEPVTVSWNSGALTSGVHTFPAVLQSSGLYSLSSVVTVPSSSLGTQTYICNVNHKPSNTKVDKRVEPKSCDKTHTCPPCPAPPAAAPSVFLFPPKPKDTLMISRTPEVTCVVVDVSHEDPEVQFNWYVDGVEVHNAKTKPREEQFNSTFRVVSVLTVVHQDWLNGKEYKCKVSNKGLPAPIEKTISKTKGQPREPQVYTLPPSREEMTKNQVSLTCLVKGFYPSDIAVEWESNGQPENNYKTTPPMLDSDGSFFLYSKLTVDKSRWQQGNVFSCSVMHEALHNHYTQKSLSLSPG
light: EIVMTQSPATLSVSPGERATLSCRASENIYRNLAWYQQKPGQSPRLLIYAATNLADGIPARFSGSGSGTEYTLTISSLQSEDFAVYYCQHFWGTPWTFGQGTKVEIKRTVAAPSVFIFPPSDEQLKSGTASVVCLLNNFYPREAKVQWKVDNALQSGNSQESVTEQDSKDSTYSLSSTLTLSKADYEKHKVYACEVTHQGLSSPVTKSFNRGEC
notes: human Ig kappa; also called L2-4/HK2
B3: humanized antibody No. 95 (antibody, human IgG1, kappa)
heavy: QVQLVQSGSELKKPGASVKVSCKASGYTFTDYSMHWVRQAPGQGLEWMGWINTETGEPTYADDFKGRFVFSLDTSVSTAYLQISSLKAEDTAVYYCARIPLYYYGSRYWYFDVWGQGTTVTVSSASTKGPSVFPLAPSSKSTSGGTAALGCLVKDYFPEPVTVSWNSGALTSGVHTFPAVLQSSGLYSLSSVVTVPSSSLGTQTYICNVNHKPSNTKVDKRVEPKSCDKTHTCPPCPAPPAAAPSVFLFPPKPKDTLMISRTPEVTCVVVDVSHEDPEVQFNWYVDGVEVHNAKTKPREEQFNSTFRVVSVLTVVHQDWLNGKEYKCKVSNKGLPAPIEKTISKTKGQPREPQVYTLPPSREEMTKNQVSLTCLVKGFYPSDIAVEWESNGQPENNYKTTPPMLDSDGSFFLYSKLTVDKSRWQQGNVFSCSVMHEALHNHYTQKSLSLSPG
light: EIVMTQSPATLSVSPGERATLSCRASENIYRNLAWYQQKPGQSPRLLIYAATNLADGIPARFSGSGSGTEYTLTISSLQSEDFAVYYCQHFWGTPWTFGQGTKVEIKRTVAAPSVFIFPPSDEQLKSGTASVVCLLNNFYPREAKVQWKVDNALQSGNSQESVTEQDSKDSTYSLSSTLTLSKADYEKHKVYACEVTHQGLSSPVTKSFNRGEC
notes: human Ig kappa; also called L2-4/HK1

What was measured:
[1] = biological target: T1, human EphA4 extracellular region-SEAP-His protein (human, UniProt P54764 20-547); assay: SPR, Ab captured
T1 construct: also called hEphA4-SEAP-His
How it was run: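 Antibodies captured (~30–60 RU) on a protein A chip, or for antibody A on immobilized rat anti-mouse IgG1, in HBS-EP. Human EphA4 extracellular region-SEAP-His at 0.6–50 nM injected in ascending order without regeneration, with 120 s association and 900 s dissociation. KD=kd/ka from 1:1 binding model fits.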

[2] = biological target: T2, human EphB1 extracellular region-SEAP-His protein (human, UniProt P54762 18-540); assay: ELISA
T2 construct: extracellular domain; also called hEphB1-SEAP-His
T2 sequence (looked up): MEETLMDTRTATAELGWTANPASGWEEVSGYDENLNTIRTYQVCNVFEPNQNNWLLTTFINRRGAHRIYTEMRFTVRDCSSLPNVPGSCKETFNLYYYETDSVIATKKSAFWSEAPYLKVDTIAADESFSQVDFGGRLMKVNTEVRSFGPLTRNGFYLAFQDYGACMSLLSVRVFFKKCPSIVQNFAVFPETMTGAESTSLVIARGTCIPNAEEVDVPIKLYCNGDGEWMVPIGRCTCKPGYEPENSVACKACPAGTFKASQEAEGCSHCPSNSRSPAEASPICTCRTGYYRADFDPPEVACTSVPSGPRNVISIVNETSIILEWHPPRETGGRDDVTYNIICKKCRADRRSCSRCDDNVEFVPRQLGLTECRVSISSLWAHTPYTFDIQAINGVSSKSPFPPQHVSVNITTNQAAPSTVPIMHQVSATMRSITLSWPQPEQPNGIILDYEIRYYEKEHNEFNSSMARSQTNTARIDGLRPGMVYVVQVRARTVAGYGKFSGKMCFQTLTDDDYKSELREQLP

[3] = biological target: T1, human EphA4 extracellular …; assay: competition ELISA, competitor human Ephrin A5-Fc
How it was run: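 Anti-alkaline phosphatase-coated plates captured EphA4-SEAP-His (10 nM final), then antibody (0–3000 nM serial dilutions) and biotinylated Ephrin A5-Fc (0.7 nM final) were co-added for 1 h at room temperature. Bound ligand detected with HRP-streptavidin and TMBZ, stopped with 1N H₂SO₄, A450 read.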

T1 sequence (P54764 20-547): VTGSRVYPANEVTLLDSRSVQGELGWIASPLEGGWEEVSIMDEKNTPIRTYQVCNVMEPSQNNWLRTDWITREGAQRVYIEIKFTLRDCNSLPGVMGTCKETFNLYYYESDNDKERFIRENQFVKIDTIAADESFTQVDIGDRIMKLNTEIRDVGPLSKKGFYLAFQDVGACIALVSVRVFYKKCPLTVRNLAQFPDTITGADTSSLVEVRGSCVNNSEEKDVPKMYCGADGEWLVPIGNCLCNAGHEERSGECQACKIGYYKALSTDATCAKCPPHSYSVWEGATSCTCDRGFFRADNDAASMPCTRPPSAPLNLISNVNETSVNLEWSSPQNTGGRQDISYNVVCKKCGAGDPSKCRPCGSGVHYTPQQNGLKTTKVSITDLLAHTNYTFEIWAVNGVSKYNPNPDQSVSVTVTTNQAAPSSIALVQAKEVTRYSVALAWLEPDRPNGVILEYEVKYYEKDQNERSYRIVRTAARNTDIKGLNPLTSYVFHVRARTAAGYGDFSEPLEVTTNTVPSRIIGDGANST

| Binder | Kd [1] [nM] | koff [1] [s⁻¹] | kon [1] [M⁻¹ s⁻¹] | A450 as % of hEphA4-SEAP-His [2] [%] | IC50 [3] [nM] |
| --- | --- | --- | --- | --- | --- |
| B1 | 0.77 | 0.00024 | 310000 | 5 | 2.5 |
| B2 | 1.1 | 0.00031 | 270000 | 5.6 | 3.7 |
| B3 | 1 | 0.00031 | 300000 | 4.6 | 3.1 |
